From PMC13043726, “SFPQ directs histone H3.3 deposition to R-loops in DNA repeats to protect genome stability”

Key:
[1] = molecular target: HA-tagged DAXX, full length (UniProt Q9UER7); assay: co-immunoprecipitation (IP anti-HA, blot anti-Myc); settings: U-2 OS cells; parent: 1
[2] = molecular target: T1, SFPQ full-length (Homo sapiens, UniProt P23246 1-707); assay: EMSA; EMSA: 10 nM probe, 0-1600 nM SFPQ, 20 mM Tris-HCl pH 7.5, 100 mM KCl, 0.5 mM MgCl2, 0.5 mM EDTA, 0.2 mM DTT, 1% glycerol, room temperature, 30 min (RNaseOUT with RNA); 5% native PAGE, 1xTBE; settings: protein: recombinant, tags: N-terminal His6-myc (vector pNIC-CTHF), chain copies: 2
T1 sequence: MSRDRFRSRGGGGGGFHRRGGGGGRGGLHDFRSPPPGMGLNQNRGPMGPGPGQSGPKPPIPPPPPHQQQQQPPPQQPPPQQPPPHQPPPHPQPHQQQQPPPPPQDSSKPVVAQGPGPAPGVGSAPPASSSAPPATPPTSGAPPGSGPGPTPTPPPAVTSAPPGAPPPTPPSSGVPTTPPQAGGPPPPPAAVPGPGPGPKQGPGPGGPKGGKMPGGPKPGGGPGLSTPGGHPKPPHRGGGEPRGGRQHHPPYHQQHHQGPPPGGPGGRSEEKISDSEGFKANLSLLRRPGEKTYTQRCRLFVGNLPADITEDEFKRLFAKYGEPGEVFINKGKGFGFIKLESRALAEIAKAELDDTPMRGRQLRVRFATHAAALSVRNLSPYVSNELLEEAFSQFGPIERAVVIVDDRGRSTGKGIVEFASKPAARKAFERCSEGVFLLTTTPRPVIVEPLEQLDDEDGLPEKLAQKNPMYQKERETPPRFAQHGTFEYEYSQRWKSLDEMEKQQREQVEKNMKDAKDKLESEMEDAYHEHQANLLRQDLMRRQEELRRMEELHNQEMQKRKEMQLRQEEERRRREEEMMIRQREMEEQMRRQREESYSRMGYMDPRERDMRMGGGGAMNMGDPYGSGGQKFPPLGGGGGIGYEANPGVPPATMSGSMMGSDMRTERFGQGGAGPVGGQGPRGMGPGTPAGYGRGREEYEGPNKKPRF

[3] = label: 5'-6-FAM on strand 1, blunt

Chain of HA-tagged DAXX, full length (Q9UER7 whole entry): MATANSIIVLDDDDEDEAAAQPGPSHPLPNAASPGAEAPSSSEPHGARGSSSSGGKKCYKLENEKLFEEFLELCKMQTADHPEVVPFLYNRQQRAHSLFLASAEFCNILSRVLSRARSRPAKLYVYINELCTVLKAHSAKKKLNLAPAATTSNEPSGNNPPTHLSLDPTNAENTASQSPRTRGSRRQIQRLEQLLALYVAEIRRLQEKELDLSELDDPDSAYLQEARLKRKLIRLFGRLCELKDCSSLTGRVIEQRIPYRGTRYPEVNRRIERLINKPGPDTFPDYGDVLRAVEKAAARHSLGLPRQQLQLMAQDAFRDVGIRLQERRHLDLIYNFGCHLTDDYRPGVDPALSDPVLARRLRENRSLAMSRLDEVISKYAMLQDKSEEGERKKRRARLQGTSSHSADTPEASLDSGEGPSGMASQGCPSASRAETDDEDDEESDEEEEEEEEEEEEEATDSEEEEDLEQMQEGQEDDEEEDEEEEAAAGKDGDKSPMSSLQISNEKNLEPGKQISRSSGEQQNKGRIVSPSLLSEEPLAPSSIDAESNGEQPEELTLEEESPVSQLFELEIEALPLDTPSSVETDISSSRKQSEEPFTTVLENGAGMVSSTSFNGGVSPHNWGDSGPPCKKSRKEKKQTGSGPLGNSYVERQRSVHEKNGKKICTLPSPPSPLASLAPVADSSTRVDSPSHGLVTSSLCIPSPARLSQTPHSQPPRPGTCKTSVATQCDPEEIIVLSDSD

“SFPQ proline-rich P-domain fused to GFP and a nuclear localization signal, myc-tagged (from UniProt P23246) T150delinsKP” showed a ratio to parent [1] of 0.2.

B1: 23-nt blunt dsRNA (R1_B:R2_B) (dsRNA)
RNA 1: CUACUACCCCCACCCUCACAACC
RNA 2: GGUUGUGAGGGUGGGGGUAGUAG
B1: no binding [2, 3].

UUAGGGUUAGGGUUAGGGUUAGGG (ssRNA) [ssRNA TERRA [UUAGGG]4]: binds ([2]; label: 5'-6-FAM, single strand).

B2: 23-nt DNA:RNA hybrid (D1_B:R2_B) (DNA:RNA)
DNA: CTACTACCCCCACCCTCACAACC
RNA: GGUUGUGAGGGUGGGGGUAGUAG
B2: no binding ([2]; label: 5'-6-FAM on DNA strand, blunt).

GAAAGAAAGAAAGAAAGAAAGAA (ssRNA) [ssRNA Pericentric2 ([GAAA]5)]: binds ([2]; label: 5'-6-FAM, single strand).

B3: 23-nt dsDNA (D1_B:D3_B) (dsDNA)
DNA 1: CTACTACCCCCACCCTCACAACC
DNA 2: GGTTGTGAGGGTGGGGGTAGTAG
B3: no binding [2, 3].

GGAAUGGAAUGGAAUGGAAUGGA (ssRNA) [ssRNA Pericentric1 (SatIII [GGAAU]4)]: binds ([2]; label: 5'-6-FAM, single strand).
